These results are taken from patent US20230312755A1 (ANGITIA, published 2023).

Assay [1] deals with T1, human RANKL (human, UniProt O14788 140-317, limits assumed).
T1 construct: Analyte in BLI; also called hRANKL; TNFSF11
T1 sequence (looked up): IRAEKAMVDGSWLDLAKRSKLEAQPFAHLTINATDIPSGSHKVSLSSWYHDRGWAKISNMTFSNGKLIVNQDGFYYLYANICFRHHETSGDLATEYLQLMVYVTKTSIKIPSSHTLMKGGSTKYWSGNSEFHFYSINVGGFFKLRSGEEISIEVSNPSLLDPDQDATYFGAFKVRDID
The assay is described as follows: BLI (Gator), antibody on anti-hFc biosensor, antigen as analyte, 1:1 global fit. The method, then:
(§1) Binding kinetics and affinities of anti-Sclerostin×anti-DKK1 and anti-Sclerostin×anti-RANKL bispecific antibodies were measured with Gator (Probe Life) bio-layer interferometry (BLI). Antibodies were immobilized on an anti-hFc biosensor, using a 5 μg/ml solution. Serial dilutions of sclerostin (from 1 μg/ml), DKK1 (from 2 μg/ml), or RANKL (from 4 μg/ml) by two folds in kinetics buffer (PBS, pH 7.4, 0.05% Tween-20, 0.2% BSA) were used as the analytes. Affinity (KD) and kinetic parameters (Kₒₙ and Koff) were calculated from a global fit (1:1) of the data using the Gator software.

Assay [2] addresses T2, human Sclerostin (human, UniProt Q9BQB4 24-213).
T2 construct: Analyte of the BLI assays and the protein added in the reporter assays; also called hSclerostin; SOST
T2 sequence: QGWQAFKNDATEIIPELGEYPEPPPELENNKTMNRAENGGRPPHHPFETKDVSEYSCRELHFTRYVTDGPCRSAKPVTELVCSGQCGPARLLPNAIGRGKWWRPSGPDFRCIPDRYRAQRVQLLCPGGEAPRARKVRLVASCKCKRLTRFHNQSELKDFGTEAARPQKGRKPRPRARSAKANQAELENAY
Described as above. The protocol:
as §1

The target of assay [3] is T1, human RANKL. Description: BLI (Gator), antibody on anti-hFc biosensor, antigen as analyte; koff at LOD, KD estimated. The method, then: as §1
Assay [4] addresses T2, human Sclerostin. Described as above. The protocol: as §1

B1: BAP0069 (bispecific antibody, human IgG4 S228P, kappa, F234A L235A)
heavy: EVQLVQSGAEVKKPGASVKVSCKASGYTFTDYEIHWVRQAPGKGLEWMGAIDPETGGTAYNQKFKGRVTMTTDTSTSTAYMELRSLRSDDTAVYYCYSYDYVTYWGQGTTVTVSSASTKGPSVFPLAPCSRSTSESTAALGCLVKDYFPEPVTVSWNSGALTSGVHTFPAVLQSSGLYSLSSVVTVPSSSLGTKTYTCNVDHKPSNTKVDKRVESKYGPPCPPCPAPEAAGGPSVFLFPPKPKDTLMISRTPEVTCVVVDVSQEDPEVQFNWYVDGVEVHNAKTKPREEQFNSTYRVVSVLTVLHQDWLNGKEYKCKVSNKGLPSSIEKTISKAKGQPREPQVYTLPPSQEEMTKNQVSLTCLVKGFYPSDIAVEWESNGQPENNYKTTPPVLDSDGSFFLYSKLTVDKSRWQEGNVFSCSVMHEALHNHYTQKSLSLSPGKGGGGSGGGGSGGGGSEIVLTQSPGTLSLSPGERATLSCRASQSVRGRYLAWYQQKPGQAPRLLIYGASSRATGIPDRFSGSGSGTDFTLTISRLEPEDFAVFYCQQYGSSPRTFGCGTKVEIKGGGGSGGGGSGGGGSGGGGSEVQLLESGGGLVQPGGSLRLSCAASGFTFSSYAMSWVRQAPGKCLEWVSGITGSGGSTYYADSVKGRFTISRDNSKNTLYLQMNSLRAEDTAVYYCAKDPGTTVIMSWFDPWGQGTLVTVSA
light: DVVMTQSPLSLSVSPGERASLSCKSSQSLLYSDGRTYLNWYLQKPGQSPQRLIYLVSKLDSGVPDRFSGSGSGTDFTLKISRVQSEDVGVYYCWQGTHLPHTFGGGTKVEIKRTVAAPSVFIFPPSDEQLKSGTASVVCLLNNFYPREAKVQWKVDNALQSGNSQESVTEQDSKDSTYSLSSTLTLSKADYEKHKVYACEVTHQGLSSPVTKSFNRGEC
notes: Anti-RANKL scFv (VL-VH, Denosumab) fused to the C-terminus of the heavy chains of the anti-Sclerostin full length antibody (hAb-1)
On to B1, for which the values for the kon in the assay with human RANKL [1] and in the assay with human Sclerostin [2] were 86700 M⁻¹ s⁻¹ and 757000 M⁻¹ s⁻¹, respectively. Besides, the Kd with human RANKL [3] and with human Sclerostin [4] was around 0.01 nM in each case.

A word on the kon: it is a measure of how fast the partners come together. The low end stands for slower complex formation, the high end for faster complex formation. By Kd is commonly meant the constant that tells how readily two partners part at equilibrium.
